Read-outs that look alike come from different tables or passages of the source.
B1: P27562716 (antibody, V domains shown)
VH: EVQLVESGGGLVQPGGSLRLSCAASGFTFSTPGMGVWWVRQAPGKGLEWLADIWWDDNKYTNPSLKSRFTISRDNAKNSLYLQMNSLRAEDTAVYYCARRANYGNPYYAQDYWGQGTTVTVSS
VL: DIVMTQTPLSLPVTPGEPASISCRSSQSIVSSWGNTYLEWYLQKPGQSPQLLIYKVSNRFSGVPDRFSGSGSGTDFTLKISRVEAEDVGVYYCFQGSHVPWTFGQGTKVEIKR
B2: P27532716 (antibody, V domains shown)
VH: EVQLVESGGGLVQPGGSLRLSCAASGFTLSTPGMGVWWVRQAPGKGLEWVADIWWDDNKYTNPSLKSRFTISRDNAKNSLYLQMNSLRAEDTAVYYCARRANYGNPYYAQDYWGQGTTVTVSS
VL: DIVMTQTPLSLPVTPGEPASISCRSSQSIVSSWGNTYLEWYLQKPGQSPQLLIYKVSNRFSGVPDRFSGSGSGTDFTLKISRVEAEDVGVYYCFQGSHVPWTFGQGTKVEIKR
B3: P27122798 (antibody)
chain 1: not shown
chain 2: DIVMTQTPLSLPVTPGEPASISCRSSQSIVHSNANTYLEWYLQKPGQSPQLLIYKVSNRFSGVPDRFSGSGSGTDFTLKISRVEAEDVGVYYCFQGSHVPWTFGQGTKVEIKRTVAAPSVFIFPPSDEQLKSGTASVVCLLNNFYPREAKVQWKVDNALQSGNSQESVTEQDSKDSTYSLSSTLTLSKADYEKHKVYACEVTHQGLSSPVTKSFNRGEC
B4: P27122797 (antibody, V domains shown)
VH: QVTLKESGPALVKPTQTLTLTCTFSGFSLSTSGMGVGWIRQPPGKALEWLADIWWDDNKYANPSLKSRLTISKDTSKNQVVLTMTNMDPVDTATYYCARRANYGNPYYAQDYWGQGTTVTVSS
VL: DIVMTQTPLSLPVTPGEPASISCRSSQSIVHSSGNTYLEWYLQKPGQSPQLLIYKVSNRFSGVPDRFSGSGSGTDFTLKISRVEAEDVGVYYCFQGSHVPWTFGQGTKVEIKR
B5: P27522716 (antibody, V domains shown)
VH: EVQLVESGGGLVQPGGSLRLSCAASGFSFSTPGMGVWWVRQAPGKGLEWVADIWWDDNKYTNPSLKSRFTISRDNAKNSLYLQMNSLRAEDTAVYYCARRANYGNPYYAQDYWGQGTTVTVSS
VL: DIVMTQTPLSLPVTPGEPASISCRSSQSIVSSWGNTYLEWYLQKPGQSPQLLIYKVSNRFSGVPDRFSGSGSGTDFTLKISRVEAEDVGVYYCFQGSHVPWTFGQGTKVEIKR
B6: P27962798 (antibody)
chain 1: not shown
chain 2: DIVMTQTPLSLPVTPGEPASISCRSSQSIVHSNANTYLEWYLQKPGQSPQLLIYKVSNRFSGVPDRFSGSGSGTDFTLKISRVEAEDVGVYYCFQGSHVPWTFGQGTKVEIKRTVAAPSVFIFPPSDEQLKSGTASVVCLLNNFYPREAKVQWKVDNALQSGNSQESVTEQDSKDSTYSLSSTLTLSKADYEKHKVYACEVTHQGLSSPVTKSFNRGEC
B7: P27552716 (antibody, V domains shown)
VH: EVQLVESGGGLVQPGGSLRLSCAASGFTFSTPGMGVWWIRQAPGKGLEWVADIWWDDNKYTNPSLKSRFTISRDNAKNSLYLQMNSLRAEDTAVYYCARRANYGNPYYAQDYWGQGTTVTVSS
VL: DIVMTQTPLSLPVTPGEPASISCRSSQSIVSSWGNTYLEWYLQKPGQSPQLLIYKVSNRFSGVPDRFSGSGSGTDFTLKISRVEAEDVGVYYCFQGSHVPWTFGQGTKVEIKR
B8: P27542716 (antibody, V domains shown)
VH: EVQLVESGGGLVQPGGSLRLSCAASGFSLSTPGMGVWWVRQAPGKGLEWVADIWWDDNKYTNPSLKSRFTISRDNAKNSLYLQMNSLRAEDTAVYYCARRANYGNPYYAQDYWGQGTTVTVSS
VL: DIVMTQTPLSLPVTPGEPASISCRSSQSIVSSWGNTYLEWYLQKPGQSPQLLIYKVSNRFSGVPDRFSGSGSGTDFTLKISRVEAEDVGVYYCFQGSHVPWTFGQGTKVEIKR
B9: P27202713 (antibody)
chain 1: not shown
chain 2: DIVMTQTPLSLPVTPGEPASISCRSSQSIVHSNGNTYLEWYLQKPGQSPQLLIYKVSNRFSGVPDRFSGSGSGTDFTLKISRVEAEDVGVYYCFQGSHVPWTFGQGTKVEIKRTVAAPSVFIFPPSDEQLKSGTASVVCLLNNFYPREAKVQWKVDNALQSGNSQESVTEQDSKDSTYSLSSTLTLSKADYEKHKVYACEVTHQGLSSPVTKSFNRGEC
B10: P27912716 (antibody)
chain 1: not shown
chain 2: DIVMTQTPLSLPVTPGEPASISCRSSQSIVSSWGNTYLEWYLQKPGQSPQLLIYKVSNRFSGVPDRFSGSGSGTDFTLKISRVEAEDVGVYYCFQGSHVPWTFGQGTKVEIKRTVAAPSVFIFPPSDEQLKSGTASVVCLLNNFYPREAKVQWKVDNALQSGNSQESVTEQDSKDSTYSLSSTLTLSKADYEKHKVYACEVTHQGLSSPVTKSFNRGEC
B11: P27572716 (antibody, V domains shown)
VH: EVQLVESGGGLVQPGGSLRLSCAASGFTFSTPGMGVWWVRQAPGKGLEWVADIWWDDNKYTNPSLKSRLTISRDNAKNSLYLQMNSLRAEDTAVYYCARRANYGNPYYAQDYWGQGTTVTVSS
VL: DIVMTQTPLSLPVTPGEPASISCRSSQSIVSSWGNTYLEWYLQKPGQSPQLLIYKVSNRFSGVPDRFSGSGSGTDFTLKISRVEAEDVGVYYCFQGSHVPWTFGQGTKVEIKR
B12: P27152797 (antibody)
chain 1: not shown
chain 2: DIVMTQTPLSLPVTPGEPASISCRSSQSIVHSSGNTYLEWYLQKPGQSPQLLIYKVSNRFSGVPDRFSGSGSGTDFTLKISRVEAEDVGVYYCFQGSHVPWTFGQGTKVEIKRTVAAPSVFIFPPSDEQLKSGTASVVCLLNNFYPREAKVQWKVDNALQSGNSQESVTEQDSKDSTYSLSSTLTLSKADYEKHKVYACEVTHQGLSSPVTKSFNRGEC
B13: P27952798 (antibody)
chain 1: not shown
chain 2: DIVMTQTPLSLPVTPGEPASISCRSSQSIVHSNANTYLEWYLQKPGQSPQLLIYKVSNRFSGVPDRFSGSGSGTDFTLKISRVEAEDVGVYYCFQGSHVPWTFGQGTKVEIKRTVAAPSVFIFPPSDEQLKSGTASVVCLLNNFYPREAKVQWKVDNALQSGNSQESVTEQDSKDSTYSLSSTLTLSKADYEKHKVYACEVTHQGLSSPVTKSFNRGEC
B14: P28612716 (antibody)
chain 1: not shown
chain 2: DIVMTQTPLSLPVTPGEPASISCRSSQSIVSSWGNTYLEWYLQKPGQSPQLLIYKVSNRFSGVPDRFSGSGSGTDFTLKISRVEAEDVGVYYCFQGSHVPWTFGQGTKVEIKRTVAAPSVFIFPPSDEQLKSGTASVVCLLNNFYPREAKVQWKVDNALQSGNSQESVTEQDSKDSTYSLSSTLTLSKADYEKHKVYACEVTHQGLSSPVTKSFNRGEC
B15: P27902713 (antibody)
chain 1: not shown
chain 2: DIVMTQTPLSLPVTPGEPASISCRSSQSIVHSNGNTYLEWYLQKPGQSPQLLIYKVSNRFSGVPDRFSGSGSGTDFTLKISRVEAEDVGVYYCFQGSHVPWTFGQGTKVEIKRTVAAPSVFIFPPSDEQLKSGTASVVCLLNNFYPREAKVQWKVDNALQSGNSQESVTEQDSKDSTYSLSSTLTLSKADYEKHKVYACEVTHQGLSSPVTKSFNRGEC

Assays:
Test in all cases: ELISA
[1] = molecular target: denatured human collagen I (UniProt P02452 162-1218; P08123 80-1119)
Sequence of denatured human collagen I (P02452 162-1218 A1075T, chain 1 of 2): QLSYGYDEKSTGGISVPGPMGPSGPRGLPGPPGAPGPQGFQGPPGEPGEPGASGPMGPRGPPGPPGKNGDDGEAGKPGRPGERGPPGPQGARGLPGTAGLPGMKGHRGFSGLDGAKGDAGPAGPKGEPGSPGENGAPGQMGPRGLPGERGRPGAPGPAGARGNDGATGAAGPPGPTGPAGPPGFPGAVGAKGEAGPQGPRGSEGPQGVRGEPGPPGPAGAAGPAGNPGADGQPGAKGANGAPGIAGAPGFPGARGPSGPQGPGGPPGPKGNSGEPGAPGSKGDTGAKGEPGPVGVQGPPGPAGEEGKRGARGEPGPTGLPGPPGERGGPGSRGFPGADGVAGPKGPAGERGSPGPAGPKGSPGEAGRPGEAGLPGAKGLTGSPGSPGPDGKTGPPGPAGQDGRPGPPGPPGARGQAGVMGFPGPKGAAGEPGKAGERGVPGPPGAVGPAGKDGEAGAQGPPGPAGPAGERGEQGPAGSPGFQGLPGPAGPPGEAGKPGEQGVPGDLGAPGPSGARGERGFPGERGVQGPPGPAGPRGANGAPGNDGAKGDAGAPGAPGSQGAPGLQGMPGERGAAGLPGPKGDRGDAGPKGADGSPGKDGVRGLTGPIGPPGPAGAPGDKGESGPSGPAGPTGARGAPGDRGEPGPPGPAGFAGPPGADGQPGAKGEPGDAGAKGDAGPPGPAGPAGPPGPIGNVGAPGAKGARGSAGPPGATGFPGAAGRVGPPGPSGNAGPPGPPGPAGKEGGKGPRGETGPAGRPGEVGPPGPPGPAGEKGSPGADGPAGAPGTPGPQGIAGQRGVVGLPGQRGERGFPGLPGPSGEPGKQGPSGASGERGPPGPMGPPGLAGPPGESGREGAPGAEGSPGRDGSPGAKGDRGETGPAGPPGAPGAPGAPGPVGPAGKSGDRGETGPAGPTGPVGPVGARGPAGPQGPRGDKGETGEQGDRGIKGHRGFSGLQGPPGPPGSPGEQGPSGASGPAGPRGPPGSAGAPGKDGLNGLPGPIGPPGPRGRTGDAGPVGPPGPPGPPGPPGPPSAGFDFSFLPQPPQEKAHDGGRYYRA
Sequence of denatured human collagen I (P08123 80-1119, chain 2 of 2): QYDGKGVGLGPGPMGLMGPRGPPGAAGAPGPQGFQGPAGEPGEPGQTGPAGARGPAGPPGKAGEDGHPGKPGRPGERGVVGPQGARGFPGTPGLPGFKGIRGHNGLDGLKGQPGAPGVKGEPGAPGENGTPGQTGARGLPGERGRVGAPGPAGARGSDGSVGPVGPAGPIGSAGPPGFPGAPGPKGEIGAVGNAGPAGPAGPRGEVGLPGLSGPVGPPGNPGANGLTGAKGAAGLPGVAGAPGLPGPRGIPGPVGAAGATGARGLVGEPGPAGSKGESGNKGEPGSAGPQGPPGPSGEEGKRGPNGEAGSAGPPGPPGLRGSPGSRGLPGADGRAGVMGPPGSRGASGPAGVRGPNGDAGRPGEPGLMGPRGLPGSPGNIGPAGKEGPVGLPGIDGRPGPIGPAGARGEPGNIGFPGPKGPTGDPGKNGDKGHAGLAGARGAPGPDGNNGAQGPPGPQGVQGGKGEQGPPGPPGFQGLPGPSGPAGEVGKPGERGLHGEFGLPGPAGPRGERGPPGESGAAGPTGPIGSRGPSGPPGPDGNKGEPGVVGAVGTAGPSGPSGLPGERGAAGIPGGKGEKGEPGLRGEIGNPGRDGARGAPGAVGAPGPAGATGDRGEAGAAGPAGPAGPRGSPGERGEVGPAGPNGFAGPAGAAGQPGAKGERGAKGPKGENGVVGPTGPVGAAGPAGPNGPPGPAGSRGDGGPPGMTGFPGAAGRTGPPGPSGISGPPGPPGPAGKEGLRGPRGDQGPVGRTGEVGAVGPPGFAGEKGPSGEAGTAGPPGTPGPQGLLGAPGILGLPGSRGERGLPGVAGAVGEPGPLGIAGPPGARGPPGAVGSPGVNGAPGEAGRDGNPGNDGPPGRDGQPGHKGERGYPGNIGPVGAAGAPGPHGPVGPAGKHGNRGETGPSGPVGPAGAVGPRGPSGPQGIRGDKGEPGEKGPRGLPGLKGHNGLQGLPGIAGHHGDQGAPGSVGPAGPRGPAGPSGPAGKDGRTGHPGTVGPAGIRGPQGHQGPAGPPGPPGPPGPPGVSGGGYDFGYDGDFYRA

[2] = molecular target: T1, denatured human collagen type IV (UniProt P02462 173-1669; P08572 184-1712)
T1 sequence (P02462 173-1669, chain 1 of 2): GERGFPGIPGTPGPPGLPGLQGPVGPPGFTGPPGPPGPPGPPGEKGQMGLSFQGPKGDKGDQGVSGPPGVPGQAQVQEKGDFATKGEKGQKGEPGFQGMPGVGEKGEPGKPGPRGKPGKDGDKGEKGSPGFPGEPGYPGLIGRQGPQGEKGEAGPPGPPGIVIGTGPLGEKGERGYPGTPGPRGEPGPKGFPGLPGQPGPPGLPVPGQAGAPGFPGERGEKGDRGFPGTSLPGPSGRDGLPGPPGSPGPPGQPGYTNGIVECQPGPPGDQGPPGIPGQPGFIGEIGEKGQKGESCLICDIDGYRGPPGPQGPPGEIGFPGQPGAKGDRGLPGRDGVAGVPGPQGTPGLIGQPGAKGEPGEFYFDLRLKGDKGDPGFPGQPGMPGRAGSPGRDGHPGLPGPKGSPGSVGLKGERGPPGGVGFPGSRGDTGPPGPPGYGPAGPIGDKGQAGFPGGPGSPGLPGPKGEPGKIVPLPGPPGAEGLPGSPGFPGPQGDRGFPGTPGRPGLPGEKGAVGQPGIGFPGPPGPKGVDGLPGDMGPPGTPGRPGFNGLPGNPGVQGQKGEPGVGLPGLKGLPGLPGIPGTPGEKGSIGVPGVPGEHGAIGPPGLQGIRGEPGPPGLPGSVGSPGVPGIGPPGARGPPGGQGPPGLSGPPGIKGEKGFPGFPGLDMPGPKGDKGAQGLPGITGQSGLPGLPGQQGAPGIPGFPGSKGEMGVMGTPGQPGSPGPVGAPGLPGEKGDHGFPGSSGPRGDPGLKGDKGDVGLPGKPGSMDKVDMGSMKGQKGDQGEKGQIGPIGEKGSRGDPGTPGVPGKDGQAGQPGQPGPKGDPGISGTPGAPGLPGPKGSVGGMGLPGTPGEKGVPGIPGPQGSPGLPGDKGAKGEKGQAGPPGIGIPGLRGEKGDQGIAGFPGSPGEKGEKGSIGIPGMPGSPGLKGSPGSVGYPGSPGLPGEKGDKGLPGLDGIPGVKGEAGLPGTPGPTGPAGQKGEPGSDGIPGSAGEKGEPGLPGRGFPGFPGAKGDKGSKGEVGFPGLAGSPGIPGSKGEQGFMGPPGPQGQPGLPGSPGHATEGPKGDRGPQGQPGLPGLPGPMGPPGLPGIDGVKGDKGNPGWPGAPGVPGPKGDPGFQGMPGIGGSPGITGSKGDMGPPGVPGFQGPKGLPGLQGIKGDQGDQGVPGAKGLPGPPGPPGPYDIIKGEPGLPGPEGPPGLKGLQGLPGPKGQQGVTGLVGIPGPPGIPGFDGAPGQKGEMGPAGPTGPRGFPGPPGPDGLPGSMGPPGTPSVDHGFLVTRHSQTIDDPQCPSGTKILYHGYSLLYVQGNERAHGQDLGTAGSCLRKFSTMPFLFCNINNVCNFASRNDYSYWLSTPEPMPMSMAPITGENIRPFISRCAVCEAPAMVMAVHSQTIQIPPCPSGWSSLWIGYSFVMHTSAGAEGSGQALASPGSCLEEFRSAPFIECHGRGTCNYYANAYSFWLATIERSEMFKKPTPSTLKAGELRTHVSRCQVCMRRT
T1 sequence (P08572 184-1712, chain 2 of 2): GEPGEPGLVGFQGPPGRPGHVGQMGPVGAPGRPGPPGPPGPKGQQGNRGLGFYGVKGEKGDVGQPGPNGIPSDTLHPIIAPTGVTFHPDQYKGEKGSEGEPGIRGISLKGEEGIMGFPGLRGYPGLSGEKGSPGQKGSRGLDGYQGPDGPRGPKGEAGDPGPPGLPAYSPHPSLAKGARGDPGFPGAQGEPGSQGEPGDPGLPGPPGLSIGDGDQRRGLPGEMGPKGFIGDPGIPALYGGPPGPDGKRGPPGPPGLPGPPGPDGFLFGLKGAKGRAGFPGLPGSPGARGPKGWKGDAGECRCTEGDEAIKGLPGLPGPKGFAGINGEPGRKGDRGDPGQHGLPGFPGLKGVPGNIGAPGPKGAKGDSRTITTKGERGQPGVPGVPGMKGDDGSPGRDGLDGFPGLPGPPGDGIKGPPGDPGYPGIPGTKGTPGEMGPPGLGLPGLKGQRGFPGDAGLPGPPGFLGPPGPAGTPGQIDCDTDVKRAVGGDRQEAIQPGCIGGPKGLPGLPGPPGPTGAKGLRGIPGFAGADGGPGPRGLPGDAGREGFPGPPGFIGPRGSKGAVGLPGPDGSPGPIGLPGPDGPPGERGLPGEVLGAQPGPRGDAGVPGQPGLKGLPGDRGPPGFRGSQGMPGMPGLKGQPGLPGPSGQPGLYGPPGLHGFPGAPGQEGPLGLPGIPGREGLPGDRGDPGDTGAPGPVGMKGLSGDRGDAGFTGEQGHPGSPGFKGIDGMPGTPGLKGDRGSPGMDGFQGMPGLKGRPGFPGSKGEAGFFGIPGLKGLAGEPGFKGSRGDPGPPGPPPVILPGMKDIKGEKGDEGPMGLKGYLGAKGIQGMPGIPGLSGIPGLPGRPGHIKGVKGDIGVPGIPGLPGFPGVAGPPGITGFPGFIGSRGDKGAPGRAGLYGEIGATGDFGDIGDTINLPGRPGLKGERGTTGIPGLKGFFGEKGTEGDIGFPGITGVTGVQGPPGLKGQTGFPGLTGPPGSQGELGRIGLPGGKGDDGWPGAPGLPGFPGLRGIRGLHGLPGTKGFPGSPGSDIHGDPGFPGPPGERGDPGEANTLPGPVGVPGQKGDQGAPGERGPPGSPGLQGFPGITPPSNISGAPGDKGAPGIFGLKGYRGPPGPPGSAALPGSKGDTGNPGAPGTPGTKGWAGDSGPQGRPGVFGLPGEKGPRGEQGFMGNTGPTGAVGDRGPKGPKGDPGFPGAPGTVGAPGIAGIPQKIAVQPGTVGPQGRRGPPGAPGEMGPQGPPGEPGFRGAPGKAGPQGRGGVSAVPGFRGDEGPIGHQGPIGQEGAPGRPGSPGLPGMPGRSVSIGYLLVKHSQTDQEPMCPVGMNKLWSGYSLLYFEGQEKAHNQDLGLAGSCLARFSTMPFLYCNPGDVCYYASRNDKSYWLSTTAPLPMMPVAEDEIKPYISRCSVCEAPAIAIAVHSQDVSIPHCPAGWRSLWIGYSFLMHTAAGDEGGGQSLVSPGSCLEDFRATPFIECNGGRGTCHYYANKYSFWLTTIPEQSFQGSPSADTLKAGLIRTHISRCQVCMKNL

[3] = molecular target: T1, denatured human collagen type IV; remark: listed apart in the source

EC50 [1] [nM]	EC50 [2] [nM]	EC50 [3] [nM]	Binder
36.2	12		B1
18.3	9.01		B2
27.2	10.8		B3
8570	32.6		B4
22.1	16.1		B5
		2.53	B6
36.6	12.2		B7
14.8	6.37		B8
		7.41	B9
		4.97	B10
20800	18.8		B11
26	9.3		B12
		18.4	B13
		2.63	B14
		57.4	B15

Reference: patent US20230257453A1 (published 2023)
